Tests used:
[1] = molecular target: histone H3-H4 heterodimer (human) (UniProt P68431); assay: SEC; Superdex 200 10/300 GL; complex obtained at 0.5 mol/L NaCl; eluted at 14.38 mL, apparent molecular weight about 60 kDa; apparent stoichiometry also by Coomassie-stained SDS-PAGE
[2] = molecular target: full-length human histone H3 (human) (UniProt P68431); assay: as above

| Substance | stoichiometry N [1] | stoichiometry N [2] |
| --- | --- | --- |
| globular domain of ASF1a (aa 1–157) (from UniProt Q9Y294 1-157) (domain or fragment) | 1 |  |
| full-length human histone H4 (from UniProt P62805 1-103) (natural protein) |  | 1 |
| N-terminal domain of human MCM2 (aa 63–154) (from UniProt P49736 63-154) (domain or fragment) | 1 |  |
